Measured values published in patent US20240279281A1, “Peptide Inhibitors of Interleukin-23 Receptor” (Janssen Pharmaceutica NV, priority 2023, published 2024).
Values belong to the binder of their own block, whether it stands above or below them. Starred links: 1 amine or outer side, 2 acyl side, 3 side chain; linkers in the order of their positions; H or OH if unused. Positions of bridges follow the written chain, without caps; N, C: chain ends. Non-standard residues stand in square brackets, D forms with d. No end group written: not given here. X1 = 3‑(7-(3-acetamidophenyl)-1H-indol-3-yl)‑2‑aminopropanoic acid, CC(=O)Nc1cccc(-c2cccc3c(CC(N[*:1])C(=O)[*:2])c[nH]c23)c1; X3 = 4‑(2-(4-(2-amino-2-carboxyethyl)phenoxy)ethyl)‑4‑methylmorpholin‑4‑ium, C[N+]1(CCOc2ccc(CC(N[*:1])C(=O)[*:2])cc2)CCOCC1; 2Nal(6-OH) = N[C@@H](Cc1ccc2cc(O)ccc2c1)C(=O)O; Trp(7-Me) = Cc1cccc2c(C[C@H](N)C(=O)O)c[nH]c12; d(hLys(Me3)) = C[N+](C)(C)CCCCC[C@@H](N)C(=O)O; AEF = NCCOc1ccc(C[C@H](N)C(=O)O)cc1; 3Pal = N[C@@H](Cc1cccnc1)C(=O)O; Pen = CC(C)(S)[C@H](N)C(=O)O; lipid = not defined here; Thp = NC1(C(=O)O)CCOCC1; Sar = CNCC(=O)O

Molecular target: T1, interleukin-23 receptor (IL-23R), Q5VWK5
T1 chain: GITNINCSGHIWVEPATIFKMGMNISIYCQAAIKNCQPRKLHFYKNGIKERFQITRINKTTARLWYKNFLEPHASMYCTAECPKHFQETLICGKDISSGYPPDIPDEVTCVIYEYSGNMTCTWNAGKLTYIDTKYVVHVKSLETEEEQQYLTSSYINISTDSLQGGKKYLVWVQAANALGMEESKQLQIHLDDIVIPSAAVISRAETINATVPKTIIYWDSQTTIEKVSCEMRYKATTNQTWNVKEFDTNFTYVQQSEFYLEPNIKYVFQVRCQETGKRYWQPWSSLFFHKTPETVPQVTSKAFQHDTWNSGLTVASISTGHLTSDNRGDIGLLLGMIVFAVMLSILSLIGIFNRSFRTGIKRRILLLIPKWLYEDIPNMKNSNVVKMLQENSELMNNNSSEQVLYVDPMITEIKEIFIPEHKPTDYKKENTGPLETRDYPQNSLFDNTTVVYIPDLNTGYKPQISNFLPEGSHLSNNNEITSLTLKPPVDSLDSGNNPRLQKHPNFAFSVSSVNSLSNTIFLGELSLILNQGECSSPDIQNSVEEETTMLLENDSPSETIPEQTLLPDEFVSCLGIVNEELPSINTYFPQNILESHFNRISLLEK
Test: cell-based or functional assay

PBMC pSTAT3 IC50: < 1 nM
B1: SEQ ID NO: 147 (peptide)
peptide: R[Pen]ET[Trp(7-Me)]K(Ac)[Pen][2‑amino‑3‑(4-(2-aminoethoxy)phenyl)propanoic acid][2‑amino‑3‑(6-hydroxynaphthalen-2-yl)propanoic acid][Thp]EN[3Pal][Sar]K
modifications: disulfide 2-7 (inferred); ends not checked; also: Lys15: lipidated lysine, lipid not given here

PBMC pSTAT3 IC50: < 1 nM
B2: SEQ ID NO: 151 (peptide)
peptide: R[Pen]NT[X1]K(Ac)[Pen][2‑amino‑3‑(4-(2-aminoethoxy)phenyl)propanoic acid][2‑amino‑3‑(6-hydroxynaphthalen-2-yl)propanoic acid][Thp]EN[3Pal][Sar]
modifications: disulfide 2-7 (inferred); ends not checked

PBMC pSTAT3 IC50: < 1 nM
B3: SEQ ID NO: 181 (peptide)
peptide: [d(hLys(Me3))][Pen]NT[Trp(7-Me)]K(Ac)[Pen][2‑amino‑3‑(4-(2-aminoethoxy)phenyl)propanoic acid][2‑amino‑3‑(6-hydroxynaphthalen-2-yl)propanoic acid][Thp]K(Ac)N[3Pal][Sar]K(lipid)
modifications: disulfide 2-7 (inferred); ends not checked; also: K15 lipidated lysine, lipid not given here

PBMC pSTAT3 IC50: < 1 nM
B4: SEQ ID NO: 170 (peptide)
peptide: [Pen]ET[Trp(7-Me)]K(Ac)[Pen][2‑amino‑3‑(4-(2-aminoethoxy)phenyl)propanoic acid][2‑amino‑3‑(6-hydroxynaphthalen-2-yl)propanoic acid][Thp]K(Ac)N[3Pal][Sar]K(lipid)
modifications: disulfide 1-6 (inferred); ends not checked; also: K14 lipidated, lipid not given here

PBMC pSTAT3 IC50: < 1 nM
B5: SEQ ID NO: 140 (peptide)
peptide: R[Pen]ET[Trp(7-Me)]K[Pen][AEF][2Nal(6-OH)][Thp]EN[3Pal][Sar]
modifications: disulfide 2-7 (inferred); ends not checked; also: K6: lipidated lysine, lipid not given here

PBMC pSTAT3 IC50: < 0.1 nM
B6: SEQ ID NO: 153 (peptide)
peptide: [Pen]NT[X1]K(Ac)[Pen][2‑amino‑3‑(4-(2-aminoethoxy)phenyl)propanoic acid][2‑amino‑3‑(6-hydroxynaphthalen-2-yl)propanoic acid][Thp]KN[3Pal][Sar]
modifications: disulfide 1-6 (inferred); ends not checked; also: K10: lipidated lysine, lipid not given here

PBMC pSTAT3 IC50: < 1 nM
B7: SEQ ID NO: 156 (peptide)
peptide: R[Pen]NT[X1]K(Ac)[Pen][2‑amino‑3‑(4-(2-aminoethoxy)phenyl)propanoic acid][2‑amino‑3‑(6-hydroxynaphthalen-2-yl)propanoic acid][Thp]EN[3Pal][Sar]K
modifications: disulfide 2-7 (inferred); ends not checked; also: K15: lipidated lysine, lipid not given here

PBMC pSTAT3 IC50: < 1 nM
B8: SEQ ID NO: 144 (peptide)
peptide: [d(hLys(Me3))][Pen]NT[Trp(7-Me)]K(Ac)[Pen][2‑amino‑3‑(4-(2-aminoethoxy)phenyl)propanoic acid][2‑amino‑3‑(6-hydroxynaphthalen-2-yl)propanoic acid][Thp]EN[3Pal][Sar]
modifications: disulfide 2-7 (inferred); ends not checked

PBMC pSTAT3 IC50: < 10 pM
B9: SEQ ID NO: 161 (peptide)
peptide: R[Pen]NT[X1]K(Ac)[Pen][X3][2‑amino‑3‑(6-hydroxynaphthalen-2-yl)propanoic acid][Thp]EN[3Pal][Sar]
modifications: disulfide 2-7 (inferred); ends not checked

PBMC pSTAT3 IC50: < 0.1 nM
B10: SEQ ID NO: 141 (peptide)
peptide: R[Pen]ET[Trp(7-Me)]K(Ac)[Pen][AEF][2Nal(6-OH)][Thp]EN[3Pal][Sar]
modifications: disulfide 2-7 (inferred); ends not checked

PBMC pSTAT3 IC50: < 0.1 nM
B11: SEQ ID NO: 148 (peptide)
peptide: R[Pen]ET[Trp(7-Me)]K(Ac)[Pen][2‑amino‑3‑(4-(2-aminoethoxy)phenyl)propanoic acid][2‑amino‑3‑(6-hydroxynaphthalen-2-yl)propanoic acid][Thp]EN[3Pal][Sar]K
modifications: disulfide 2-7 (inferred); ends not checked; also: Lys15: lipidated lysine, lipid not given here

PBMC pSTAT3 IC50: < 1 nM
B12: SEQ ID NO: 150 (peptide)
peptide: R[Pen]KT[X1]K(Ac)[Pen][2‑amino‑3‑(4-(2-aminoethoxy)phenyl)propanoic acid][2‑amino‑3‑(6-hydroxynaphthalen-2-yl)propanoic acid][Thp]EN[3Pal][Sar]
modifications: disulfide 2-7 (inferred); ends not checked; also: Lys3: lipidated lysine, lipid not given here

PBMC pSTAT3 IC50: < 0.1 nM
B13: SEQ ID NO: 142 (peptide)
peptide: R[Pen]ET[Trp(7-Me)]K(Ac)[Pen][2‑amino‑3‑(4-(2-aminoethoxy)phenyl)propanoic acid][2‑amino‑3‑(6-hydroxynaphthalen-2-yl)propanoic acid][Thp]EN[3Pal][Sar]K
modifications: disulfide 2-7 (inferred); ends not checked; also: Lys15: lipidated lysine, lipid not given here

PBMC pSTAT3 IC50: < 0.1 nM
B14: SEQ ID NO: 145 (peptide)
peptide: [(R)‑2‑(2-(3-((5-carboxy-5-hydrazineylpentyl)amino)-3-oxopropoxy)ethoxy)‑N,N,N‑trimethylethan‑1‑aminium][Pen]NT[Trp(7-Me)]K(Ac)[Pen][2‑amino‑3‑(4-(2-aminoethoxy)phenyl)propanoic acid][2‑amino‑3‑(6-hydroxynaphthalen-2-yl)propanoic acid][Thp]EN[3Pal][Sar]
modifications: disulfide 2-7 (inferred); ends not checked

PBMC pSTAT3 IC50: < 1 nM
B15: SEQ ID NO: 164 (peptide)
peptide: K(lipid)[Pen]NT[Trp(7-Me)]K(Ac)[Pen][2‑amino‑3‑(4-(2-aminoethoxy)phenyl)propanoic acid][2‑amino‑3‑(6-hydroxynaphthalen-2-yl)propanoic acid][Thp]K(Ac)N[3Pal][Sar]
modifications: disulfide 2-7 (inferred); ends not checked; also: K1: lipidated lysine, lipid not given here

PBMC pSTAT3 IC50: < 1 nM
B16: SEQ ID NO: 169 (peptide)
peptide: [Pen]ET[Trp(7-Me)]K(Ac)[Pen][2‑amino‑3‑(4-(2-aminoethoxy)phenyl)propanoic acid][2‑amino‑3‑(6-hydroxynaphthalen-2-yl)propanoic acid][Thp]K(Ac)N[3Pal][Sar]K(lipid)
modifications: disulfide 1-6 (inferred); ends not checked; also: K14 lipidated, lipid not given here

PBMC pSTAT3 IC50: < 1 nM
B17: SEQ ID NO: 166 (peptide)
peptide: [(R)‑3‑carboxy‑2‑(4-(((R)-5-carboxy-5-hydrazineylpentyl)amino)-4-oxobutanamido)‑N,N,N‑trimethylpropan‑1‑aminium][Pen]NT[Trp(7-Me)]K(Ac)[Pen][2‑amino‑3‑(4-(2-aminoethoxy)phenyl)propanoic acid][2‑amino‑3‑(6-hydroxynaphthalen-2-yl)propanoic acid][Thp]EN[3Pal][Sar]K(lipid)
modifications: disulfide 2-7 (inferred); ends not checked; also: K15: lipidated lysine, lipid not given here

PBMC pSTAT3 IC50: < 0.1 nM
B18: SEQ ID NO: 139 (peptide)
peptide: [Pen]NT[Trp(7-Me)]K(Ac)[Pen][AEF][2Nal(6-OH)][Thp]K(Ac)N[3Pal][Sar]K
modifications: disulfide 1-6 (inferred); ends not checked; also: K14: lipidated lysine, lipid not given here

PBMC pSTAT3 IC50: > 1 nM
B19: SEQ ID NO: 165 (peptide)
peptide: [Pen]NT[Trp(7-Me)]K(Ac)[Pen][2‑amino‑3‑(4-(2-aminoethoxy)phenyl)propanoic acid][2‑amino‑3‑(6-hydroxynaphthalen-2-yl)propanoic acid][Thp]K(Ac)N[3Pal][Sar]K(lipid)
modifications: disulfide 1-6 (inferred); ends not checked; also: K14: lipidated lysine, lipid not given here

PBMC pSTAT3 IC50: < 1 nM
B20: SEQ ID NO: 182 (peptide)
peptide: [Pen]NT[Trp(7-Me)]K(Ac)[Pen][2‑amino‑3‑(4-(2-aminoethoxy)phenyl)propanoic acid][2‑amino‑3‑(6-hydroxynaphthalen-2-yl)propanoic acid][Thp]K(Ac)N[3Pal][Sar]K(lipid)
modifications: disulfide 1-6 (inferred); ends not checked; also: K14 lipidated lysine, lipid not given here
